In patent US20070098735A1, “Methods for the Elimination of Pathogens and Other Particulate Agents” (priority 2005, published 2007):
One block for each molecule: values may come before it.

Tests used:
[1] = molecular target: Toll-like receptor-7 (TLR7) (murine) (UniProt P58681); assay: cell-based or functional assay
[2] = tested on: Murine macrophage lines (RAW264.7, J774.A1 or RAW264NO-); assay: Phagocytosis assay in vitro (uptake of Alexa Fluor 488-labeled particles); assay type: cell-based; settings: HSPs 100 μg/ml; P<0.01 vs medium alone
Experimental: Phagocytosis Assay in vitro. RAW 264.7, RAW264.7 (NO-) and J774A.1 cells were cultured in DMEM or RPMI (RAW NO-) with 10% FCS, harvested, and washed. 3×10^5 cells/well were incubated in serum-free Earle's minimal essential medium (EMEM) in a 24-well plate for 1 hour at 37° C. Alexa Fluor® 488-labeled particles (inert polystyrene microspheres; or yeast, Saccharomyces cerevisiae or Gram-negative bacteria, Escherichia coli, 40 particles/macrophage) were added and co-incubated in a dark environment for 60 minutes in serum free EMEM with or without HSPs, LPS, or control proteins. At the end of 60 minutes incubation, the plate was covered in a dark container on ice. Specific measures were taken to exclude the fluorescence that resulted from particles that were outside of the cell or sticking to the surface of the cell. […] Specifically, trypan blue (0.8 mg/ml) was added for 60 seconds and plates were analyzed immediately using FluorImager SI (Molecular Dynamics/Amersham). Since the emission of Alexa Fluor® 488, about 519 nm at an excitation of about 490 nm, falls within the absorbance range of trypan blue (475-675 nm), the fluorescence of the sample only represents the intracellular fluorescence. External or surface-bound fluorescence is quenched. Using Student's t test, the results were analyzed and P-values were calculated.
HSP-mediated phagocytosis was quantified by measuring the internalized fluorescence measured by FluorImager SI and Relative Mean Fluorescence Intensity (RMFI) was compared between the treatment groups (as indicated). All the treatment groups were compared to medium alone using the Student's t test and significance denoted by P<0.01. The error bar represents one standard deviation. The results shown are a cumulative analysis of 3 experiments, 3 wells/group.

[3] = tested on: full thickness surgical wounds on the dorsum of BALB/cJ mice; assay: Closure of full thickness surgical wounds, percent wound closure; assay type: in vivo
Experimental: Surgery and Treatment. Mice were anesthetized using Ketamine (2.0 mg/mouse) and Xylazine (0.1 mg/mouse) were administered intraperitoneally (IP) and the dorsal skin was shaved. After sterile prepping of the area, a full thickness circular wound, 8 mm diameter, was made on the dorsal skin using a disposable biopsy punch (Miltex Inc, York, Pa.) on the midline of the dorsum approximately at the iliac crest. The mice were then randomly assigned into the treatment groups. Initial wound measurements were performed while the mice were still anesthetized. Mice were then treated on days 0, 2, 4, and 6 unless otherwise specified. All agents used as treatment were diluted in 0.5 ml of PBS and injected using a 25-gauge needle in the subcutaneous space in the nape of the neck. The surgical procedures, post-operative monitoring, and safety concerns were approved by the Institutional Animal Care and Usage Committee.
Measurements and Analysis. Wound healing of open wounds is a complex process with many parameters to consider. […] The wound surface area was determined by measuring the craniocaudal and lateromedial distances using vernier calipers in perpendicular axis on days 0, 2, 4, 6, 9, and 11 postoperatively unless noted. Changes in wound area were expressed as percent wound closure. Wound closure data was plotted as average percent wound closure ±SEM unless otherwise noted. All calculations and data analysis were performed using Microsoft Excel and Sigma Plot. Sigma Plot was used to perform Student's t-tests for reported P values.
Full thickness surgical wounds were created on the dorsum of BALB/cJ mice as described in Methods. Wounds were made on day 0. Subsequently, the wounds were treated with exogenous injections of HSP70, HSP90, gp96 (30 μg/dose) or buffer administered subcutaneously (SC) on days 0, 2, 4 and 6 following surgery (FIG. 6A). The wounds were measured on days 0, 2, 4, 6, 9, 11 unless otherwise noted. Wounds were measured serially, percent wound closure was calculated and plotted against time in order to quantitate the rate of healing by secondary intention. […] Data is plotted as average percent wound closure ±SEM on days indicated. Two mice from each treatment group (PBS (n=12), HSP70 (n=11), HSP90 (n=12), and gp96 (n=11)) were sacrificed for histology on days 2, 4, and 6 post-surgery (data not shown). The P values obtain using the Student's t-test.
Results are of average percent wound closure ±SEM on day 2 post surgery. The *P values were obtained using the Student's t-test by comparing HSP treatment to all of the non-HSP control treatments. The least significant P value was reported. […] Doses higher than 50 μg/dose were not tested.

[4] = tested on: TNF-α; assay: Wound lysate cytokine production (cytometric bead assay), TNF-α; assay type: in vivo, mice; settings: SC 30 μg dose
Experimental: Wound and Skin Lysate Cytokine Production. Mice were wounded and treated as stated previously. Wounds were harvested 24 hours after treatment, pulverized in 5 ml of PBS and large debris was removed by straining the wound lysate through a […] mesh strainer. The soluble fraction was then centrifuged for 20 minutes at 14,000 rpm. Protein concentration was then assessed by Bradford assay. Skin samples were taken and processed in the same manner. 250 μg of each sample was then tested for the presence of monocyte chemotactic peptide-1 (MCP-1), tumor necrosis factor-α (TNF-α), and interleukin 6 (IL-6) using the BD Biosciences cytometric bead assay (CBA) mouse inflammatory kit (BD Biosciences Pharmingen, San Diego, and CA.) following the manufacture's protocol.
The wounds were lysed and MCP-1, TNFα and IL-6 levels were quantified (pg/ml of 250 μg of protein). Each sample was tested in duplicate. *P values are the significant difference of cytokines found in wound lysate compared to skin lysate in a treatment group. **P values are the significant differences of cytokines found in PBS treated mice wound lysate compared to the treatment group wound lysate.

Sequence of Toll-like receptor-7 (TLR7) (murine) (P58681 27-1050): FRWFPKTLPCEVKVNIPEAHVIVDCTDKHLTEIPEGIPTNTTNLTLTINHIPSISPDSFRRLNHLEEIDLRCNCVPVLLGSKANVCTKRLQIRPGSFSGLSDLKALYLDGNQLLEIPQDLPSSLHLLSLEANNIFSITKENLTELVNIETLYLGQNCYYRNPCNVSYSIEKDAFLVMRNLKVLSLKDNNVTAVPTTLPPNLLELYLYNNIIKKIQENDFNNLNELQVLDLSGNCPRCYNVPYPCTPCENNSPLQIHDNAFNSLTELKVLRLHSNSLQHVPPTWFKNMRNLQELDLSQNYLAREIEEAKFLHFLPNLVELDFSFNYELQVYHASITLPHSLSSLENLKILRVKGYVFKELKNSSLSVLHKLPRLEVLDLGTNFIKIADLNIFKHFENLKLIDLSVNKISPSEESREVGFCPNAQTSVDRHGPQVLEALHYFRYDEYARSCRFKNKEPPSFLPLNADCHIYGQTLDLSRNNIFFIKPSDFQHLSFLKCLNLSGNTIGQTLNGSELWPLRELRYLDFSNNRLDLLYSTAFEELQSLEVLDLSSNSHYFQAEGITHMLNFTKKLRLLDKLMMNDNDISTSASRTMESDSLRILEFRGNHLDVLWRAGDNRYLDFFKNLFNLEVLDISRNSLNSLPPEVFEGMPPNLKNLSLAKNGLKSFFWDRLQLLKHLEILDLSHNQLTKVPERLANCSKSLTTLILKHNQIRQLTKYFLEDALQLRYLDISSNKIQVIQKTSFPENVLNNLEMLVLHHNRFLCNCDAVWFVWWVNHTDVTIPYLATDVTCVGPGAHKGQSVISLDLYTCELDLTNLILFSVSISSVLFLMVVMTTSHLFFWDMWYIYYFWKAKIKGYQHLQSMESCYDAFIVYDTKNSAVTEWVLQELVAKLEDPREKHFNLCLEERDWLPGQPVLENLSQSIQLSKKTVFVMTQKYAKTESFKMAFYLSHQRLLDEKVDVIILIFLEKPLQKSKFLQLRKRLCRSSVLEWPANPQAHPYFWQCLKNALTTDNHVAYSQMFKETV

decrease in phagocytic activity of RAW264.7 cells treated with HSP70 in the presence of known TLR7-ligands, compared with HSP70 alone [1]: 45 to 65%
Molecule: HSP70 purified from murine livers (from UniProt P17879 2-642)

B1: gp96: heat shock protein (HSP90 family, endoplasmic reticulum) purified from murine livers (protein, UniProt P08113 22-802, looked up)
Endoplasmin: DDEVDVDGTVEEDLGKSREGSRTDDEVVQREEEAIQLDGLNASQIRELREKSEKFAFQAEVNRMMKLIINSLYKNKEIFLRELISNASDALDKIRLISLTDENALAGNEELTVKIKCDKEKNLLHVTDTGVGMTREELVKNLGTIAKSGTSEFLNKMTEAQEDGQSTSELIGQFGVGFYSAFLVADKVIVTSKHNNDTQHIWESDSNEFSVIADPRGNTLGRGTTITLVLKEEASDYLELDTIKNLVRKYSQFINFPIYVWSSKTETVEEPLEEDEAAKEEKEESDDEAAVEEEEEEKKPKTKKVEKTVWDWELMNDIKPIWQRPSKEVEEDEYKAFYKSFSKESDDPMAYIHFTAEGEVTFKSILFVPTSAPRGLFDEYGSKKSDYIKLYVRRVFITDDFHDMMPKYLNFVKGVVDSDDLPLNVSRETLQQHKLLKVIRKKLVRKTLDMIKKIADEKYNDTFWKEFGTNIKLGVIEDHSNRTRLAKLLRFQSSHHSTDITSLDQYVERMKEKQDKIYFMAGSSRKEAESSPFVERLLKKGYEVIYLTEPVDEYCIQALPEFDGKRFQNVAKEGVKFDESEKTKESREATEKEFEPLLNWMKDKALKDKIEKAVVSQRLTESPCALVASQYGWSGNMERIMKAQAYQTGKDISTNYYASQKKTFEINPRHPLIRDMLRRIKEDEDDKTVMDLAVVLFETATLRSGYLLPDTKAYGDRIERMLRLSLNIDPEAQVEEEPEEEPEDTSEDAEDSEQDEGEEMDAGTEEEEEETEKESTEKDEL
modifications: complexed with endogenous peptides
notes: heat shock protein (HSP90 family, endoplasmic reticulum) purified from murine livers
uptake of microbial or non-microbial materials as compared to control proteins or buffer [2]: increase in uptake | wound closure compared to controls ([3]; 5 μg/dose and 50 μg/dose, day 2): significant wound closure | wound healing at Day 11 ([3]; 30 μg/dose SC on days 0, 2, 4 and 6): completely healed | dose with the most significant difference in wound closure ([3]; doses 5, 30, 50 μg/dose tested): 30 μg/dose | TNF-α content of wounds compared to LPS or MSA [4]: not significantly elevated | TNF-α content of wounds compared to buffer group [4]: significantly increased
